In test [1] the target is murine κ-opioid receptor (κOR-GFP and SNAP-κOR, two differently tagged copies co-expressed) (murine) (UniProt P33534). The experiment in a line: PhotoGate single-molecule co-localisation imaging.
Test [2] concerns the target murine κ-opioid receptor, split GFP pair (SNAP-κOR-GFP10 and κOR-GFP11-mKate co-expressed) (murine) (UniProt P33534). The experiment in a line: split reporter.

On to “murine κ-opioid receptor (κOR-GFP and SNAP-κOR, two differently tagged copies co-expressed) (from UniProt P33534 1-380)”, for which, in test [1], the co-localization time stood at 476 ms, the dimeric fraction is less than 100%, the fraction of receptors in yellow spots was 33% and the yellow fraction at a density of 14 / µm^2 was 10%. This substance came in with a yellow fraction at densities of > 100 / µm^2 in test [1] of 46%.
As to “murine κ-opioid receptor, split GFP pair (SNAP-κOR-GFP10 and κOR-GFP11-mKate co-expressed) (from UniProt P33534 1-380)”, in test [2], the GFP-positive fraction was 91%.
